Experimental data from publication PMC6659632, “Preferential phosphatidylinositol 5-phosphate binding contributes to a destabilization of the VHS domain structure of Tom1” (Scientific Reports, 2019).

Target: T1, ubiquitin (human, UniProt P0CG48 1-76)
T1 construct: ubiquitin, human; the cut product (one ubiquitin unit) of the polyubiquitin precursor; Construct was a gift (Dr. Julie Forman-Kay); also called human ubiquitin
Assay: ITC; ubiquitin (5 mM) in the syringe, Tom1 VHS (50 uM) in the sample cell; 25 °C; 20 mM HEPES (pH 7.4), 150 mM KCl; one-site binding model; nonreducing conditions
Conditions: both partners purified

- Kd: 695 µM
B1: Tom1 VHS domain (domain or fragment, human, UniProt O60784 20-152, looked up)
chain: ATDGSLQSEDWALNMEICDIINETEEGPKDALRAVKKRIVGNKNFHEVMLALTVLETCVKNCGHRFHVLVASQDFVESVLVRTILPKNNPPTIVHDKVLNLIQSWADAFRSSPDLTGVVTIYEDLRRKGLEFP
notes: Tom1 (target of Myb1), human, N-terminal VHS domain; measured average mass 15,708.01 Da, predicted 15.7 kDa; also called VHS domain of Tom1; target of Myb1 VHS domain; source: E. coli (Rosetta), GST fusion purified on glutathione beads, cleaved with thrombin, size-exclusion chromatography
